According to article PMC2199204 (The Journal of Cell Biology, 2001):

Molecular target: T1, endogenous RasGRP (human (endogenous in A172), UniProt O95267 1-797)
T1 sequence (looked up): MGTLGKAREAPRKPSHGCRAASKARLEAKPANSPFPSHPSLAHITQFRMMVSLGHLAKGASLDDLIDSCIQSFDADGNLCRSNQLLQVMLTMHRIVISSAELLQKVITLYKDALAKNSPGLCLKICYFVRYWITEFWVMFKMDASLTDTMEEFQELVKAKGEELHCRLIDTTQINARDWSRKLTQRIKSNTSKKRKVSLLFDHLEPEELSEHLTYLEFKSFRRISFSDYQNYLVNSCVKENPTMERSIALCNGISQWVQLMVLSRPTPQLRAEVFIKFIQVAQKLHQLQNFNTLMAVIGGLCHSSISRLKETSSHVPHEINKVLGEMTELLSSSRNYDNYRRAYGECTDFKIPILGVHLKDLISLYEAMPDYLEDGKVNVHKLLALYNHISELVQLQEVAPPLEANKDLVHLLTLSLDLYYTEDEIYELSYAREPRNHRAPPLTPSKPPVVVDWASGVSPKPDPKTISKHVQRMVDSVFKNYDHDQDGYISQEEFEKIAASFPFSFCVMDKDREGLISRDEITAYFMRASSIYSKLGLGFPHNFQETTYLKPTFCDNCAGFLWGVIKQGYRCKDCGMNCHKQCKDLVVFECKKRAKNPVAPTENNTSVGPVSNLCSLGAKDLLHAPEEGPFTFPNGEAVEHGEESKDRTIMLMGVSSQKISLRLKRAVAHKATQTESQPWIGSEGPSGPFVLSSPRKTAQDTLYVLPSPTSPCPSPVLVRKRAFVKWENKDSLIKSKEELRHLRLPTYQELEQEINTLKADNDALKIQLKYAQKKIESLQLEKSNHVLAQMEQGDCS
Assay: co-IP

B1: endogenous DGKζ (enzyme)
chain: not shown
  fold associated DGK activity, PMA-treated over untreated cells: 1.9 fold
